Assay results as given in paper PMC8093215.

Target: human DNMT1 BAH1 domain (residues 728-900), Y775A (human) (UniProt P26358)
Assay: ITC; 1 mM H4K20me peptide titrated over 0.1 mM hDNMT1 BAH1 or BAH2 domain; 25 mM Tris-HCl pH 7.5, 100 mM NaCl, 2 mM DTT; 5 °C; single-site binding mode

Chain of human DNMT1 BAH1 domain (residues 728-900), Y775A (human) (P26358 728-900 Y775A): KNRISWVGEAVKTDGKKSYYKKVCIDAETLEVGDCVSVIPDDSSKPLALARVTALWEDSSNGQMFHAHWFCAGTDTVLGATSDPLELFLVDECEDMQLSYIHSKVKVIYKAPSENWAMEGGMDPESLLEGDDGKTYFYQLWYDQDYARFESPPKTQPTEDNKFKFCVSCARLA

H4(14-25)K20me3 peptide (from UniProt P62805 15-26)
Kd: 361 µM | stoichiometry N: 1
